# US20180199611A1 (UNIVERSITY OF FLORIDA RESEARCH FOUNDATION, published 2018)
# T1: I-A(b) MHC II molecule (;mouse, UniProt P14434 24-218; P14483 28-226)
# T1 construct: Custom-prepared PE-labeled tetramer
# T1 sequence (MHC II alpha): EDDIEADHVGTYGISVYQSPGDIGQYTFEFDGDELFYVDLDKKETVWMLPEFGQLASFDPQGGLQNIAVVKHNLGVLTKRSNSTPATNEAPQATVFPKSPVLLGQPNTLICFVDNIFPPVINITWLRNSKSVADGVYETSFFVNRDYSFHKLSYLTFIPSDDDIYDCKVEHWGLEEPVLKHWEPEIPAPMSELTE
# T1 sequence (MHC II beta): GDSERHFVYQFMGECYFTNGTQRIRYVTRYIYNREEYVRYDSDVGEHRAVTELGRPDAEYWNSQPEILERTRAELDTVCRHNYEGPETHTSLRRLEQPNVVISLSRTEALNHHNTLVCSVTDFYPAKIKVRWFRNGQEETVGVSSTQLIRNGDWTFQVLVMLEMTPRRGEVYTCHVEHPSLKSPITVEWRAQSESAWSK
# B1: DlaT 245-259 peptide (VAPPAPVAPSAPVAA) (peptide)
# peptide: VAPPAPVAPSAPVAA
# notes: Synthetic 15-mer; It was loaded in a custom PE-labeled I-A(b) tetramer; also called Tetramer DlaT^245 peptide; pep of dihydrolipoamide acyltransferase
# Molecular target: T1, I-A(b) MHC II molecule
# Test: peptide binding to MHC II during preparation of I-A(b) tetramers; method not described
binder,measurement,value
B1,binding result,binds
